{"source": "patent US20260007728A1", "about": "“COMBINATION THERAPIES INVOLVING L-ASPARAGINASE” (Jazz Pharmaceuticals Ireland Ltd., priority 2022, published 2026)", "key": {"DLBCL lines": {"system": "DLBCL lines", "assay": "Single-agent sensitivity of lymphoma lines (dose-response, 72 hrs incubation)", "assay_type": "cell-based", "details": "ABC, GCB, and THL lines; read-out: sensitivity to carfilzomib (range)", "source_text": "Sensitivity to asparaginase and 11 chemotherapeutic agents (carfilzomib, doxorubicin, rapamycin, ibrutinib, cyclophosphamide, prednisolone, metformin, venetoclax, navitoclax, rituximab and vincristine) determined in 8 lymphoma lines, including diffuse large B-cell and Burkitt lymphomas. The investigated lymphoma lines are sensitive to asparagine depletion within the clinically achievable range. Expression of decisive genes (BCL2, BCL6, BCL2L1, MYC, ASNS) determined in 8 lymphoma lines (FIGS. 11 and 12). Increased expression of BCL2 served as marker for resistance of ibrutinib and rapamycin in triple hit lymphoma (FIGS. 11 and 12). Increased expression of ASNS served as marker for resistance of carfilzomib and asparaginase in Burkitt lymphoma (FIGS. 11 and 12). Identified combination agents that enhanced asparaginase activity in vitro include synergy of JZP458 and rituximab, venetoclax and ibrutinib in lymphoma lines (DLBCL) (see FIG. 13, FIG. 15, and FIG. 17). […] In vivo tolerability study of long acting Erwinia Asparaginase.\nABC-DLBCL lines and one of GCB-DLBCL lines are very sensitive to JZP458 in the range of 0.011-7.3 IU/mL. Dose-response curve overlays-72 hrs incubation."}, "[1]": {"system": "ASNS expression in Burkitt lymphoma lines", "assay": "qPCR gene expression after compound treatment", "assay_type": "cell-based", "details": "for change of ASNS expression: Burkitt lymphoma lines; for increase of ASNS expression: Burkitt lymphoma lines (BJAB, RAJI, RAMOS), after treatment", "description": "(§1) Cell Culture: Cell culture medium: RPMI 1640 medium (#2198761, Thermo Fisher) supplemented with 10% fetal calf serum (#S00AZ, BioWest) and 1% pen/strep (#15140-122, Thermo Fisher). At day-1, 900 μl cell suspension was seeded in 24-well plates (#662165, Greiner Bio-One) at a density of 128,000 cells/well. At day 0, 100 μl compound was added in three different concentrations to reach a final concentration of 0.316×IC50, 1×IC50, and 3.16×IC50 (unless indicated otherwise). To the control samples, 100 μl 20 mM HEPES+3.16% DMSO was added instead of compound. When the compound is prepared in HEPES instead of DMSO, 20 mM HEPES without DMSO was added to the cells. The cells were collected at 6 hours, 24 hours and 48 hours after addition of the compound and were transferred to a 96-well deep well plate and centrifuged for 5 min at 340×g. Prior to the collection of the cells microscopic pictures were taken from the untreated (control) cells. After removing the medium, 200 μl RNA protect (#76526, Qiagen) was added to the cell pellet and the cells were stored at −80° C.\n(§2) RNA isolation: Total RNA was isolated with the SV96 Total RNA Isolation System kit (#Z3505, Promega) according to manufacturer's instructions. The procedure includes a ‘RNAse free DNAse’ gDNA removal step.\n(§3) Determining the RNA concentration: RNA concentrations were determined with the RiboGreen (#R11490, Thermo Fisher) kit according to manufacturer's instructions.\n(§4) cDNA synthesis: RNA was reverse transcribed into cDNA using the Quantitect Reverse Transcript Kit (#205313, Qiagen) according to manufacturer's instructions. This procedure includes a second ‘RNAse free DNAse’ gDNA removal step, ensuring the complete removal of gDNA from the samples. For each time point (6 h, 24 h, or 48 h) identical volumes of RNA were used for cDNA synthesis. After synthesis, cDNA is diluted with nuclease free water to obtain approximately similar cDNA concentrations per sample.\n(§5) qPCR: 1) 50° C. for 10 min (Uracil-DNA glycosylase ([…]) step to remove all potential traces of amplicon DNA from previous qPCRs); 2) 5 min UDP inactivation/denaturation at 95° C.; 3) 40 cycles of 10s denaturation at 95° C., 20s annealing at 60° C., and 30s extension at 72° C.; and 4) Dissociation curve to determine the melting temperature of the qPCR amplicon.\n(§6) qPCR Data Analysis: Cq and Tm raw data values are determined by the BioRad CFX manager software from the PCR machine. For every PCR sample that produced a Cq value the corresponding melting temperature of the PCR amplicon (Tm) was checked to identify samples that generated dual or a specific PCR products. A PCR product is regarded a specific when its Tm is >0.5° C. different from that the Tm of the specific PCR amplicon, in this case the Cq value is removed and not used for further data analysis. Cq values were than normalized by subtracting the (mean) Cq value of the two housekeeping genes (ACTB & RPS18) from the Cq value of the gene of interest. The normalized value is called DCq. The Cq difference between sample and the control (DDCq) was calculated by subtracting DCq control from DCq sample. The fold difference in expression between the control (no compound) and the compound treated sample is than calculated according the 2^-DDCq method."}, "[2]": {"system": "BCL2 expression in DLBCL lines (ABC and GCB type)", "assay": "qPCR gene expression after compound treatment", "assay_type": "cell-based", "description": "as §1, §2, §3, §4, §5, §6"}, "[3]": {"assay": "Half life of asparaginases", "details": "in vivo"}, "[4]": {"system": "liquid tumors with NRAS mutations", "assay": "Sensitivity to L-asparaginase across cell line panel by NRAS status", "assay_type": "cell-based", "details": "NRAS mutant vs other lines", "description": "Sensitivity to L-asparaginase was determined in 140 lines across multiple indications. In silico tandem perturbation effects of Asparagine synthetase and signaling components analyzed (≈700 lines). A subset of lines are ASNS dependent for survival (see McDonald, E. Robert et al. (2017). Project DRIVE: A Compendium of Cancer Dependencies and Synthetic Lethal Relationships Uncovered by Large-Scale, Deep RNAi Screening. Cell 170, 577-592 and https://oncologynibr.shinyapps.io/drive/which is herein incorporated by reference to show expression of ASNS and sensitivity to asparagine depletion). In vitro, most lines are sensitive to asparagine depletion within a clinically achievable range (see FIG. 6)."}}, "data": [{"molecule": "CC(C)C[C@H](NC(=O)[C@H](CCc1ccccc1)NC(=O)CN1CCOCC1)C(=O)N[C@@H](Cc1ccccc1)C(=O)N[C@@H](CC(C)C)C(=O)[C@@]1(C)CO1", "note": "[carfilzomib, reference compound]", "values": [{"measurement": "IC50", "setting": "DLBCL lines", "value": "1.3 to 7.2", "unit": "nM"}, {"measurement": "change of ASNS expression", "setting": "[1]", "value": "significantly increase"}, {"measurement": "increase of ASNS expression", "setting": "[1]", "value": 1.25, "unit": "fold"}]}, {"molecule": "JZP-458: recombinant, unfunctionalized, short acting Erwinia L-asparaginase (SEQ ID NO: 1 tetramer) (protein, listed as Dickeya chrysanthemi, homotetramer) ADKLPNIVILATGGTIAGSAATGTQTTGYKAGALGVDTLINAVPEVKKLANVKGEQFSNMASENMTGDVVLKLSQRVNELLARDDVDGVVITHGTDTVEESAYFLHLTVKSDKPVVFVAAMRPATAISADGPMNLLEAVRVAGDKQSRGRGVMVVLNDRIGSARYITKTNASTLDTFKANEEGYLGVIIGNRIYYQNRIDKLHTTRSVFDVRGLTSLPKVDILYGYQDDPEYLYDAAIQHGVKGIVYAGMGAGSVSVRGIAGMRKAMEKGVVVIRSTRTGNGIVPPDEELPGLVSDSLNPAHARILLMLALTRTSDPKVIQEYFHTY", "values": [{"measurement": "change of ASNS expression", "setting": "[1]", "value": "significantly increase"}, {"measurement": "increase of ASNS expression", "setting": "[1]", "value": 0.75, "unit": "fold"}, {"measurement": "change of BCL2 expression", "setting": "[2]", "value": "decrease"}, {"measurement": "half life t½", "setting": "[3]", "value": "~2.13", "unit": "h"}, {"measurement": "sensitivity of liquid tumors with NRAS mutations", "setting": "[4]", "value": "more sensitive"}]}]}
